From the supplement of paper PMC10065799, “High-throughput profiling of sequence recognition by tyrosine kinases and SH2 domains using bacterial peptide display” (eLife, 2023)

How the values were obtained:
[1] = biological target: MERTK (UniProt Q12866); test: phosphorylation enrichment, bacterial display (enrichment ratio); higher = better substrate or ligand; peptides without Tyr show the background
[2] = test system: c-Abl (mouse); test: as above
[3] = biological target: Hck (UniProt P08631); test: as above
[4] = biological target: EPHB1 (UniProt P54762); test: as above
[5] = biological target: EPHB2 (UniProt P29323); test: as above
[6] = biological target: FGFR1 (UniProt P11362); test: as above
[7] = biological target: Jak2 (UniProt O60674); test: as above
[8] = test system: c-Src; test: as above
[9] = biological target: Fyn (UniProt P06241); test: as above
[10] = test system: AncSZ; test: as above
[11] = test system: Fer (mouse); test: as above
[12] = biological target: Fes (UniProt P07332); test: as above
[13] = biological target: FGFR3 (UniProt P22607); test: as above
[14] = biological target: Grb2 SH2 (UniProt P62993); test: SH2 binding enrichment of the phosphorylated peptide, bacterial display (enrichment ratio); higher = better substrate or ligand; peptides without Tyr show the background
[15] = biological target: c-Src SH2; test: as above
[16] = biological target: SHP2-C SH2; test: as above
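Throughout, for SH2 binding enrichment of the phosphorylated peptide, bacterial display: peptide library displayed on the E. coli surface as eCPX fusions, selected cells deep-sequenced, score is each peptide's frequency after selection divided by its frequency in the input.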
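Throughout, for phosphorylation enrichment, bacterial display: 11-residue human phosphosite peptides and single-mutation variants displayed on the E. coli surface, counted by deep sequencing, each peptide's frequency after selection divided by its frequency in the unselected input library; frequency after pTyr selection over input frequency; kinase dosed for 20-30% of maximal phosphorylation in three min.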

Chain of Fyn (P06241 whole entry, looked up): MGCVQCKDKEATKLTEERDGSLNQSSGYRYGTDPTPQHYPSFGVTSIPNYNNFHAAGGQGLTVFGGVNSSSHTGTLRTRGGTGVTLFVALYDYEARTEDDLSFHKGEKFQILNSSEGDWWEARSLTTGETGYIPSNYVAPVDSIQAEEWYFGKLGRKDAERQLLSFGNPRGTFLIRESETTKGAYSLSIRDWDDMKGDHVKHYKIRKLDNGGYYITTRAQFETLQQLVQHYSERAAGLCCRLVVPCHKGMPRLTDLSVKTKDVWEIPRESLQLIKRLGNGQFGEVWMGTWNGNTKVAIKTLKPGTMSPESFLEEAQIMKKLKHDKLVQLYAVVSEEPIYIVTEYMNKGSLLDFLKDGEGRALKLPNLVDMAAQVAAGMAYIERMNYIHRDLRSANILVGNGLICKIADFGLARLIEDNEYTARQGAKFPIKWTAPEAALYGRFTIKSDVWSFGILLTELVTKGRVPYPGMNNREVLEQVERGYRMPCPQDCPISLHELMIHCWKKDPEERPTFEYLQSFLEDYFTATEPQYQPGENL
Chain of Fes (P07332 whole entry, looked up): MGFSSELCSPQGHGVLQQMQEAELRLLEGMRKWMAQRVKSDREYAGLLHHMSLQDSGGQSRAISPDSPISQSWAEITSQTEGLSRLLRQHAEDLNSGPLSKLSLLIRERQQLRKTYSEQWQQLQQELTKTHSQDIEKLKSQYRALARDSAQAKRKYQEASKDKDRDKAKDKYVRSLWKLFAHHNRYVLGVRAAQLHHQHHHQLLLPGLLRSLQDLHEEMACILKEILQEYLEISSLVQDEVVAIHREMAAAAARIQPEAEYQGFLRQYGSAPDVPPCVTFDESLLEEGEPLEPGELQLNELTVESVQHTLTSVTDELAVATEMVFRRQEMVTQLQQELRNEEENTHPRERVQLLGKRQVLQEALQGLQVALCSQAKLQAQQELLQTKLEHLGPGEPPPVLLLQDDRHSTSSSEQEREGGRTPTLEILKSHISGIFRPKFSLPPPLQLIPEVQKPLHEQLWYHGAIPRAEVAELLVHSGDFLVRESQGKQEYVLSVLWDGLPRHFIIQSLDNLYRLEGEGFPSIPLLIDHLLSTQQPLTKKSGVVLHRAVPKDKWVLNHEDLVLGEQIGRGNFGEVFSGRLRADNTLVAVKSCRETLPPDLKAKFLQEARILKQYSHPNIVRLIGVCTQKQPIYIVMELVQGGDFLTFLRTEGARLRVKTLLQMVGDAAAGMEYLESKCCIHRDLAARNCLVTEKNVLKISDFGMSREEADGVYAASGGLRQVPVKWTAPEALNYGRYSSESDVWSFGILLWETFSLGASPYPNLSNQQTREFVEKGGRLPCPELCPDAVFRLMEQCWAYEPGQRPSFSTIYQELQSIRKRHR
Chain of EPHB1 (P54762 whole entry, looked up): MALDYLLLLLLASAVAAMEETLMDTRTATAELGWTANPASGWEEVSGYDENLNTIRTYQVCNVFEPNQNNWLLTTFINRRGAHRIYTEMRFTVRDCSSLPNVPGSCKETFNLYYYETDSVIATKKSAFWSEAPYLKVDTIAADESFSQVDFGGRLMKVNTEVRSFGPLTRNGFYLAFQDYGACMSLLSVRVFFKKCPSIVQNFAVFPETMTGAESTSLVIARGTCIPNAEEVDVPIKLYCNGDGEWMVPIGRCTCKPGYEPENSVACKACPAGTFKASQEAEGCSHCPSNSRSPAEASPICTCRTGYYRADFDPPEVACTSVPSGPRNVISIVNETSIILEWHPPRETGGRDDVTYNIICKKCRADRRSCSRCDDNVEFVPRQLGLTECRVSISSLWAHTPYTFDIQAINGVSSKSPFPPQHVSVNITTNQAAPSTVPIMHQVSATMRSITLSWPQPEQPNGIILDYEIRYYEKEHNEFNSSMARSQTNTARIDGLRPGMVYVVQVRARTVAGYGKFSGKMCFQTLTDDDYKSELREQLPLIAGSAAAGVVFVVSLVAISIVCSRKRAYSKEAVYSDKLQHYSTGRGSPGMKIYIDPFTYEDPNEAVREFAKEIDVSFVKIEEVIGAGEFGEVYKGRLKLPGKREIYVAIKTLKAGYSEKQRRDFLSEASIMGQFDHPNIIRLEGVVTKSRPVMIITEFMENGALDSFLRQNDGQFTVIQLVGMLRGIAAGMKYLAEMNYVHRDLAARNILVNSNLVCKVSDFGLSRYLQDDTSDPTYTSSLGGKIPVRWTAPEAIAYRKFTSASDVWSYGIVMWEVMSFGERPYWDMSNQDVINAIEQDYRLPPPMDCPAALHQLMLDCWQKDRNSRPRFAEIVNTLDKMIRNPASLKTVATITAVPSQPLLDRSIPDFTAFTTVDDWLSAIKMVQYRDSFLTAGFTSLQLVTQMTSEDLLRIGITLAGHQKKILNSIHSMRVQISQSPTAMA
Chain of Jak2 (O60674 whole entry, looked up): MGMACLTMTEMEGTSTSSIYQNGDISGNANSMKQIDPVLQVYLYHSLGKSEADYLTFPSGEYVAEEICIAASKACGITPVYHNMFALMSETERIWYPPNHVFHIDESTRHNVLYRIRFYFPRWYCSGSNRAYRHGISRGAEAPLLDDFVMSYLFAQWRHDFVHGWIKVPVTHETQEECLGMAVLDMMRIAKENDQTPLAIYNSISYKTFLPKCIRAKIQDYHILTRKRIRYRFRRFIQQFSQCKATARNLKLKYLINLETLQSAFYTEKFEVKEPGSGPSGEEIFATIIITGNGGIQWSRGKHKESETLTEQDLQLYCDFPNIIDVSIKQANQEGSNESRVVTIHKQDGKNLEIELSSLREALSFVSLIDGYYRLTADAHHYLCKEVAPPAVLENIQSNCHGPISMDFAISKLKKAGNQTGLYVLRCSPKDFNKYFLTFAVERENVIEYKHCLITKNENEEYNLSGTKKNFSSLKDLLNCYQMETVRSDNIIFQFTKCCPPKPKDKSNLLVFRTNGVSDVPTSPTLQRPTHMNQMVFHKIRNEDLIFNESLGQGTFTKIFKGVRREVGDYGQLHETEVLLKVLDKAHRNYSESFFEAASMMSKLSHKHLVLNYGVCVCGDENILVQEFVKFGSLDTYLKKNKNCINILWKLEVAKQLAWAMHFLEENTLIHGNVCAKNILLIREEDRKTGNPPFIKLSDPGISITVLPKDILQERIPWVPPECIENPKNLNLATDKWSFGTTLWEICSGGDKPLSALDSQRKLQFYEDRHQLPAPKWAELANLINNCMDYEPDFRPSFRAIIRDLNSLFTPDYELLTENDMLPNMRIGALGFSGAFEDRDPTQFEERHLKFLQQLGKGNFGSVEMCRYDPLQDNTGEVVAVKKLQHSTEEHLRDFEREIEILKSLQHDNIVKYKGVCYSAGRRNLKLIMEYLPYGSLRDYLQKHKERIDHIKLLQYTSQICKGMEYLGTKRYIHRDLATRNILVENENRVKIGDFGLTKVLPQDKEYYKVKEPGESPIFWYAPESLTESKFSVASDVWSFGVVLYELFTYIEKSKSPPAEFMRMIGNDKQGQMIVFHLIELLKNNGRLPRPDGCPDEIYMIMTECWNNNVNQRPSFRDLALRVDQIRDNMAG
Chain of FGFR1 (P11362 whole entry, looked up): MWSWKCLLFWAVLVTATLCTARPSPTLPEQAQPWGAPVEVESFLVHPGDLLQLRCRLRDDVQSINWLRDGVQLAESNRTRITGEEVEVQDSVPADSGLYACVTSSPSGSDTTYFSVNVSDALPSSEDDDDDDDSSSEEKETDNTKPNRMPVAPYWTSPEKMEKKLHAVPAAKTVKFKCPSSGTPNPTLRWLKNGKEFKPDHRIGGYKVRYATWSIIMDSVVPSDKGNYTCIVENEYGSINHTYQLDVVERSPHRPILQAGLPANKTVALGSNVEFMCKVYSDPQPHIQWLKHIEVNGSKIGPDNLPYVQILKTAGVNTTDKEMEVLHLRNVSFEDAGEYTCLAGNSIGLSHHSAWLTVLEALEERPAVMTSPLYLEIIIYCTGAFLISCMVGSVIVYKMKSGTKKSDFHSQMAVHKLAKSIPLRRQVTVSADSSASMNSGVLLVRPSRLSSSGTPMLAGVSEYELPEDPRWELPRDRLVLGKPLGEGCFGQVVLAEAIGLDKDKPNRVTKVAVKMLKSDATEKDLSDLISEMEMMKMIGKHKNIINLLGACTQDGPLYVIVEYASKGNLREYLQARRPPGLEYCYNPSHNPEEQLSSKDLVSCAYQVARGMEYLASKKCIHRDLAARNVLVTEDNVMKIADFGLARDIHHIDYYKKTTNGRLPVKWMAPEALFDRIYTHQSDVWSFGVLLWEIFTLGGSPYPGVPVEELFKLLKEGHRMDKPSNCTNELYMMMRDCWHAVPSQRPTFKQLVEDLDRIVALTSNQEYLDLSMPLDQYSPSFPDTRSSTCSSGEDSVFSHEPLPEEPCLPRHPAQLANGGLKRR
Chain of Hck (P08631 whole entry, looked up): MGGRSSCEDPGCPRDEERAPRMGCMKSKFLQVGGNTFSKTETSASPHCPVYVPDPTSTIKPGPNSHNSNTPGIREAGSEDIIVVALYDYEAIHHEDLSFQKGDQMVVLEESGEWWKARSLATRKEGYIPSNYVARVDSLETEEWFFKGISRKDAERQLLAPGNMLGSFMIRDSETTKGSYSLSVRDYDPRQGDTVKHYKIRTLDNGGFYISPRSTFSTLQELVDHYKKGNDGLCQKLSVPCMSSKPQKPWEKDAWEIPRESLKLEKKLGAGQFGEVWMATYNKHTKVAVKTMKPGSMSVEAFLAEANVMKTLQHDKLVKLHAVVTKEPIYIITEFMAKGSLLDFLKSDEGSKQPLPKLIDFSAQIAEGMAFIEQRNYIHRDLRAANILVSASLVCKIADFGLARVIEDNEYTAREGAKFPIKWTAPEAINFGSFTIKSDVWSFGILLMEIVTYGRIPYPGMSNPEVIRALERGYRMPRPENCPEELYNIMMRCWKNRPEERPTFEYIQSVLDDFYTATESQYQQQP

SH2 binding enrichment [14] | SH2 binding enrichment [15] | SH2 binding enrichment [16] | Sequence | phosphorylation enrichment [1] | phosphorylation enrichment [2] | phosphorylation enrichment [3] | phosphorylation enrichment [4] | phosphorylation enrichment [5] | phosphorylation enrichment [6] | phosphorylation enrichment [7] | phosphorylation enrichment [8] | phosphorylation enrichment [9] | phosphorylation enrichment [10] | phosphorylation enrichment [11] | phosphorylation enrichment [12] | phosphorylation enrichment [13]
0.674 | 0.511 | 0.736 | FRNSLYAPDFS [FAM92A_Y226_YF] | 8.67 | 0.563 | 1.23 | 2.04 | 1.35 | 0.891 | 0.812 | 1.25 | 1.02 | 0.755 | 0.911 | 0.899 | 0.743
0.871 | 1.04 | 0.682 | KDKLPYLYDDP [GPX2_Y125_P126L] | 0.461 | 0.547 | 0.537 | 0.947 | 0.765 | 0.5 | 0.857 | 0.455 | 0.522 | 1.17 | 0.77 | 0.983 | 0.624
0.934 | 0.455 | 0.543 | SFKNKYGMVAQ [APOB_Y276_YF] | 0.341 | 0.465 | 0.354 | 0.302 | 0.354 | 0.335 | 0.43 | 0.375 | 0.353 | 0.42 | 0.335 | 0.574 | 0.39
0.998 | 1.4 | 0.559 | ILGTYYETGSI [PAX2_Y73_R71T] | 3.6 | 1.16 | 2.99 | 2.54 | 2.19 | 9.71 | 1.28 | 4.01 | 4.14 | 0.971 | 0.645 | 1.04 | 8.15
0.75 | 0.462 | 0.574 | EEGNPSFSSAR [MCCC2_Y520_Y520S_YF] | 0.459 | 0.681 | 0.395 | 0.418 | 0.467 | 0.388 | 0.826 | 0.433 | 0.42 | 0.682 | 0.426 | 0.876 | 0.623
2.15 | 1.05 | 0.889 | NFCPGYNNFFN [USH2A_Y467_R464C_YF] | 0.458 | 0.577 | 0.426 | 0.393 | 0.43 | 0.415 | 0.775 | 0.719 | 0.434 | 0.733 | 0.455 | 0.79 | 0.524

The remaining lines, values behind:

Sequence | SH2 binding enrichment [14] | SH2 binding enrichment [15] | SH2 binding enrichment [16] | phosphorylation enrichment [1] | phosphorylation enrichment [2] | phosphorylation enrichment [3] | phosphorylation enrichment [4] | phosphorylation enrichment [5] | phosphorylation enrichment [6] | phosphorylation enrichment [7] | phosphorylation enrichment [8] | phosphorylation enrichment [9] | phosphorylation enrichment [10] | phosphorylation enrichment [11] | phosphorylation enrichment [12] | phosphorylation enrichment [13]
YGLQAYTKVKT [ALDH2_Y502_E504K] | 0.811 | 1.85 | 2.67 | 0.414 | 0.614 | 0.377 | 0.445 | 0.462 | 0.45 | 1.23 | 0.435 | 0.357 | 1.26 | 0.427 | 1.08 | 0.679
CKLFQYFLDHL [ATRX_Y1849_YF] | 1.57 | 1.34 | 1.41 | 0.526 | 0.933 | 0.585 | 0.693 | 0.605 | 0.647 | 1.3 | 0.524 | 0.536 | 1.37 | 0.635 | 1.41 | 0.873
AKLNIYKRKVE [VWA3B_Y918] | 0.854 | 0.517 | 0.664 | 0.448 | 0.91 | 0.307 | 0.309 | 0.305 | 0.331 | 0.603 | 0.4 | 0.53 | 0.486 | 0.34 | 0.504 | 0.422
SYMVRYNQPRV [GRIN2D_Y736] | 0.871 | 1.11 | 1.25 | 0.45 | 0.694 | 0.385 | 0.46 | 0.51 | 0.561 | 0.651 | 0.432 | 0.38 | 0.721 | 0.419 | 0.734 | 0.523
KFADVYVGICL [B3GALNT1_Y269_E266A] | 0.731 | 0.423 | 0.369 | 0.522 | 1.29 | 0.85 | 0.846 | 0.988 | 0.65 | 1.21 | 1.12 | 0.787 | 1.46 | 0.978 | 1.34 | 0.909
KTDVRYRSLGG [DYSF_Y1858_H1857R] | 0.898 | 0.383 | 0.634 | 0.346 | 0.473 | 0.314 | 0.333 | 0.312 | 0.372 | 0.553 | 0.368 | 0.35 | 0.446 | 0.414 | 0.472 | 0.472
NNPAFYVLEGV [INPPL1_Y987_YF] | 0.768 | 0.682 | 0.693 | 0.554 | 0.616 | 0.485 | 0.5 | 0.581 | 0.653 | 0.87 | 0.638 | 0.699 | 0.956 | 0.42 | 1 | 0.612
CYSSEYHYVGG [CTSC_Y345_Y340C] | 0.884 | 2.04 | 0.943 | 4.76 | 2.79 | 2.29 | 5.54 | 5.91 | 13 | 1.77 | 2.02 | 1.57 | 4.45 | 1.26 | 1.1 | 9.68
RSFLSYYTSHV [NEFL_Y442_P440L] | 1.12 | 1.66 | 1.63 | 1.44 | 0.606 | 0.421 | 0.998 | 0.761 | 0.575 | 1.71 | 0.561 | 0.692 | 0.996 | 0.491 | 0.876 | 0.834
KGNMYYENSYA [EGFR_Y113_R108K] | 10.2 | 4.96 | 1.05 | 1.17 | 0.474 | 0.561 | 0.629 | 0.593 | 0.878 | 0.481 | 0.473 | 0.515 | 0.667 | 1.23 | 0.77 | 0.72
GGGGGYNRSSG [FUS_Y232] | 0.682 | 0.34 | 0.503 | 0.435 | 0.574 | 0.419 | 0.57 | 0.271 | 0.304 | 0.503 | 0.358 | 0.371 | 0.478 | 0.328 | 0.503 | 0.386
